Results reported in paper PMC3909270, “The basic keratin 10-binding domain of the virulence-associated pneumococcal serine-rich protein PsrP adopts a novel MSCRAMM fold” (Open Biology, 2014).

B1: Strep-Tag-II BR_(187–385) (KRT10-binding domain of the pneumococcal serine-rich repeat protein PsrP) [S. pneumoniae TIGR4] / KRT10 tail-rod-2B domain (KRT10-TRD) [human] (parent complex)
chain 1: FSGNTIVNGAPAINASLNIAKSETKVYTGEGVDSVYRVPIYYKLKVTNDGSKLTFTYTVTYVNPKTNDLGNISSMRPGYSIYNSGTSTQTMLTLGSDLGKPSGVKNYITDKNGRQVLSYNTSTMTTQGSGYTWGNGAQMNGFFAKKGYGLTSSWTVPITGTDTSFTFTPYAARTDRIGINYFNGGGKVVESSTTSQSLS
chain 2: LKQSLEASLAETEGRYCVQLSQIQAQISALEEQLQQIRAETECQNTEYQQLLDIKIRLENEIQTYRSLLEGEGSSGGGGRGGGSFGGGYGGGSSGGGSSGGGHGGGHGGSSGGGYGGGSSGGGSSGGGYGGGSSSGGHGGSSSGGYGGGSSGGGGGGYGGGSSGGGSSSGGGYGGGSSSGGHKSSSSGSVGESSS

Variants of: B1
Test: ELISA; KRT10-TRD coated in wells of ELISA plates; parent: 1; read off a plot

Compared with chain 1 FSGNTIVNGAPAINASLNIAKSETKVYTGEGVDSVYRVPIYYKLKVTNDGSKLTFTYTVTYVNPKTNDLGNISSMRPGYSIYNSGTSTQTMLTLGSDLGKPSGVKNYITDKNGRQVLSYNTSTMTTQGSGYTWGAGAQMNGFFAKKGYGLTSSWTVPITGTDTSFTFTPYAARTDRIGINYFNGGGKVVESSTTSQSLS [chain 1 N135A], chain 1 FSGNTIVNGAPAINASLNIAKSETKVYTGEGVDSVYRVPIYYKLAVTNDGSKLTFTYTVTYVNPKTNDLGNISSMRPGYSIYNSGTSTQTMLTLGSDLGKPSGVKNYITDKNGRQVLSYNTSTMTTQGSGYTWGNGAQMNGFFAKKGYGLTSSWTVPITGTDTSFTFTPYAARTDRIGINYFNGGGKVVESSTTSQSLS [chain 1 K45A] is lower in response: about 1.1 normalized absorbance for the first, about 0.97 normalized absorbance for the second.
